Test results published in patent publication US20150368316A1 (ALBERT EINSTEIN COLLEGE OF MEDICINE OF YESHIVA UNIVERSITY, published 2015).

Tests used:
[1] = target: human PD-L1 on mature human monocyte-derived dendritic cells (human) (UniProt Q9NZQ7); assay: flow cytometry, Kd estimated from MFI of Ig fusion protein binding to TNF-α-matured human monocyte-derived dendritic cells; the cells express both PD-L1 and PD-L2, so the value is an apparent avidity not resolved between the two ligands [panel B, table]
[2] = target: human PD-L2 on mature human monocyte-derived dendritic cells (human) (UniProt Q9BQ51); assay: as above
Chain of human PD-L2 on mature human monocyte-derived dendritic cells (human) (Q9BQ51 20-273): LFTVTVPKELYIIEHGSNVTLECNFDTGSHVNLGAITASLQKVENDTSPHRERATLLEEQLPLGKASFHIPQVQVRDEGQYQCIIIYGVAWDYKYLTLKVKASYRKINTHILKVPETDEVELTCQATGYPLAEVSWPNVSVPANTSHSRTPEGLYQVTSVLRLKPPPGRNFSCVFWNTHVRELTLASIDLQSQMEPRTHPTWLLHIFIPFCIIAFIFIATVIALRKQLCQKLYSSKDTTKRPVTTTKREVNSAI

Chain of human PD-L1 on mature human monocyte-derived dendritic cells (human) (Q9NZQ7 19-290): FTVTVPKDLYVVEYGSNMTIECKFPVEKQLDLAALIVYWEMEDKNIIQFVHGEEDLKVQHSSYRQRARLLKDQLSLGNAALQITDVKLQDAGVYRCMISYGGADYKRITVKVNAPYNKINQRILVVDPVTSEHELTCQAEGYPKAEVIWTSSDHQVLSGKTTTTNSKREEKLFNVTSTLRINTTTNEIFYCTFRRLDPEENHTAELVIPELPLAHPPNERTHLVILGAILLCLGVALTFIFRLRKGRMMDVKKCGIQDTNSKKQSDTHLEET

Kd [1]: 325 nM
Kd [2]: 325 nM
Substance: PD-1 Ig (Fc fusion)
